B1: TPR t1 (parent)
chain: GACCAAUCUGCCCUCAGAGCUCGAGAACAUCUUCGGAUGCAGAGGAGGCAGGCUUCGGUGGCGCGAUAGCGCCAACGUCCUCAACCUCCAAUGCAUCCCACCACAUGAUGAUGCCUGAAGAGCCUUGGUUUUUUG

Variants of: B1
Test: polymerase ribozyme fitness, log enrichment relative to wild type (log ratio); higher = more active; in vitro selection for triplet polymerase activity
Method in brief: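 Input and output libraries were sequenced on Illumina after a single in vitro selection round, run in triplicate on PCR-built, transcribed mutant libraries of each subunit of a heterodimeric triplet polymerase ribozyme. Selection annealed libraries to a biotinylated primer, the partner subunit and triplets, incubated them frozen at −7 °C, then gel-excised extended constructs for streptavidin-bead capture and RT-PCR. Genotypes with ≥10 input reads and ≥1 read per output were kept. Fitness is the logarithm, taken in base 2, of genotype enrichment divided by wild-type enrichment, using inverse-variance-weighted replicate averages.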

Variant | polymerase ribozyme fitness (log ratio)
G42C G48C C79A | -6.14
A41U G42C G60U | -2.24
G42A G45C C123U | -1.9
G42A C85A C94U | -3.73
G42U C53U U59G C89A C124A | -0.557
A41G C76U | -0.163
G42A A46C G63C U106A | -3.82
A41U A46U C72U A83C U109A | -7.09
G42U A50C U92C | -2.73
A41U A43C C49U A50G U129C | -4.69
G42C A118G | -1.93
A41G G52C A66C C97U | -3.69
G42A C72U C85U | -2.92
G42C G48C U55C | -1.95
G42A C73A C89G | -2.01
A41U G110A A121C G122A G128U | -5.21
G42U A74U | -2.19
G42C C70A C104U | -4.4
G42A C89U | -1.16
A41U A46U G63U | -3.33
G42U A43C C104U | -0.998
A41U G63A C101A G113A A118U | -4.42
G42C G71U A84U | -3.18
G42C U96G C124U | -0.43

Variant | polymerase ribozyme fitness (log ratio)
A41U C53U G120U | -1.89
G42C U116C U125A | -3.61
G42A U59A | -1.76
A41U C72G | -2.06
G42C C79U A95G U129C | -2.57
G42C U55A G113U G120U C123U U125A | -3.47
A41G G48A C80U A95G C124A | 0.0211
G42A A83C U112A | -1.42
A41G G52A G61C C85U C124A U126C | -5.73
A41U C97U | -2.14
A41U C53U G117C U131A | -5.46
G42A G135U | -2.72
A41U A83U U87G U92A | -0.357
G42U A68U C123G U130A | -5.54
A41U C53G G113C | -3.41
A41U G44C G47U C70U A84C A108U G117U | -6.98
G42U A68C G107C C114U G128C U133G | -6.38
A41U C49G G52U U112C | -1.09
A41U U87C A90U A91C | -1.28
A41G U55G A74G | 0.0435
A41U C80A | -5.17
G42A C70U G117A | -4.31
G42A U130C U133A | -1.86
G42A G44A A50C C115A | -4.02

Variant | polymerase ribozyme fitness (log ratio)
G42A G93A C114U | -3.01
A41U C82U A103U G110C G122A | -7.14
G42U A100C U116C | -4.27
A41U G42C C70A | -6.24
A41U C49U U109A U130G | -6.38
G42C G77A | -1.99
G42C G63C C73A | -3.92
A41U G69C U78C A100U | -6.25
G42C A50U | -3.32
G42C A50C | -2.31
G42C U109A | -5.54
G42C A66G C89G | -4.07
G42A C98U | -2.55
G42U C49A C53A U59C C82U | -2.94
G42A G63C | -2.96
A41U U78G C82U A91G A121C | -1.41
A41U A111U | -4.55
A41U U109G | -6.03
G42A G44U C99A A100U U109A | -5.27
A41G G117C | -4.18
A41G C73U | -0.342
A41U G45A U55C | -1.85
A41U G63A C124U | -1.14
A41U U112C | 0.631

Variant | polymerase ribozyme fitness (log ratio)
A41U U112A | -0.325
G42U C56A C64U | -2.46
A41U A43U G113A C124A | -1.71
G42A U106A G120U U132A | -2.41
A41U C49G A83C U133G | -1.44
G42A G52C C62A | -4.83
A41U G45A | -1.87
G42C G52U G60C | -2.14
G42A G69U C89G | -0.811
G42C G113C | -2.1
G42C G45U U133A | -2.53
G42U A43C | -1.95
A41U C88G | -2.13
A41U C88U | -1.27
G42A G44A C62U G63A U112G G120C | -5.64
G42C C79U C82G C85G G110C | -5.74
G42A C73G C79A U130A | -5.42
A41U C56G G71U C79U G117C | -6.29
A41G G52A U59C U125G | -1.61
G42A G120U | -1.82
A41U A50U C53A | -3.22
A41G C79G | -4.32
A41U U126G | -3.66
G42A G58A | -1.77

Variant | polymerase ribozyme fitness (log ratio)
A41U C53U U112G | -2.23
G42A G48A G69C | -4.05
G42A G45C C49G U96A | -3.8
G42C C85G | -3.39
G42A G117C A119U | -3.55
G42C C72U G113C | -2.98
G42C G61C C79U A90C C115G G120U G122A | -4.78
A41G U55A G58C G120U | -0.997
G42C C49A G93C | -3.52
G42A A43U U96A | -2.41
A41U C72U C88U | -1.2
G42A A91G | -2.47
A41U A84G G122A | -3.29
A41U C56U G110A | -2.95
G42A G44C A46U G71U A111G G120A | -3.41
G42C G47U G52C C114A A118G | -6.7
G42A G47U G57U G58U | -3.58
G42C G47U A108C G110A U112A | -7.49
G42A C49U U112C | -0.387
A41U U129C | -0.914
A41U G61C | -3.99
G42A G61A C115A | -1.62
G42C C124A | -0.168
G42U A119U | -1.27

Variant | polymerase ribozyme fitness (log ratio)
A41G G61C C94A A111U | -5.2
A41G C101A C115G | -2.97
A41U G60U C85A C94U | -1.72
G42A G47C C82U A84G | -3.91
G42C G61C | -4.07
G42C C49G C56U | -2.41
G42A C89A A108G | -4.56
A41U C70G G120U | -6.06
A41G G42A | -2.57
A41U G117C | -4.87
G42A A119G | -0.491
G42C G71U G117C | -4.87
G42C C49A C56U U96A | -3.16
G42C A43U C86U U96C | -2.55
G42U A50C A83G C97G C99U U106A G113U C124A | -7.66
A41G C104A G113C | -3.19
A41U C53U | -1.15
A41G G45U C62A U78A U112G | -5.01
G42A A103U U112A | -7.34
G42A U54C | -1.78
G42A C72A C123A | -1.85
A41U C72U A83U U87G U92A | -0.865
G42A G44A G47U C64U | -4.22
G42A A90C U96A G117U | -5.05

Variant | polymerase ribozyme fitness (log ratio)
A41G U81A G117U | -5.27
A41G G110U | -1.97
A41U G58C C89G | -2.91
A41U G127C | -2.91
G42A C94G | -3.05
A41G U55A C56U C72G A118U | -0.698
A41U C56U A75G U78C C82G A118G G120U A121U U129G | -3.43
G42A C72G G93U | -3.39
G42A A46U G48A A66C A118U | -5.21
A41G G63A | -1.32
G42U A84U C115A G127A | -4.77
G42C G71A C72A C115U | -5.81
G42C G128C | -4.09
G42C G128A | -3.12
A41G C101A | -1.25
G42A G44C G47C C97U G120U U130C | -3.09
A41G G48U A121U | 1.04
G42A G69C | -3.78
G42U A75G G93C | -2.29
G42A G60U | -2.08
A41U G69U G93C | -0.276
A41U A111G U112A A118U | -5.06
A41U G57C | -1.91
